One may read the Kd as the equilibrium constant for the complex coming apart. A low value points to higher affinity. Usually koff stands for the rate constant with which the complex falls apart. Higher therefore signals a short-lived complex. As usually defined, the kon is a measure of how fast the partners come together. Lower therefore signals slow association.

Test [1] deals with T1, human VEGF-A165 (human, UniProt P15692 207-395). In words: cell-based or functional assay.
The target in test [2] is T1, human VEGF-A165. The experiment in a line: SPR, BIAcore T100, kinetic analysis, 1:1 model. The method, then:
Affinity and Dissociation Constants, KA and KD, respectively, were determined by kinetic analysis fitting a 1:1 interaction model using the BIAcore T100 evaluation software.
On the technique in general: SPR reads the build-up and loss of mass on a sensor chip optically.

Another test has as its target T2, mouse VEGF-A (mouse, UniProt Q00731-2 27-190, limits assumed).
T2 sequence (looked up): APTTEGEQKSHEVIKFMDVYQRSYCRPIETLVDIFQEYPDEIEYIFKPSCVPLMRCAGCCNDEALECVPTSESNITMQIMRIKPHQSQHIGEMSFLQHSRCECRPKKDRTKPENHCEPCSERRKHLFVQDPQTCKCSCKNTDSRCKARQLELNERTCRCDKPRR
The experiment in a line: ELISA and SPR.

In another test the target is T3, human VEGF-B186 (human, UniProt P49765 22-207).
T3 construct: also called Vascular endothelial growth factor antigen B
T3 sequence: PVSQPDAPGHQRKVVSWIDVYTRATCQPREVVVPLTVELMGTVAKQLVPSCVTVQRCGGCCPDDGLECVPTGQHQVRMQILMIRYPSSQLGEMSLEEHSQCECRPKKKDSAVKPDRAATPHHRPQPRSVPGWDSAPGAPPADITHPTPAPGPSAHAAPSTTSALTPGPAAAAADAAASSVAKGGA
The experiment in a line: SPR, Biacore T100, antibody (6.30-0.18 uM) injected over immobilized VEGF-B186 (4000 RU), 1:1 model. The method, then: KA and KD respectively, were determined by kinetic analysis fitting a 1:1 interaction model using biacore T100 Evaluation software.

Test [3] addresses T1, human VEGF-A165. In words: SPR, Biacore T100, kinetic analysis, 1:1 model.

B1: hMcA-AB1-anti-VEGF-A (humanized monoclonal antibody A-AB1-anti-VEGF-A) (antibody, human IgG1, V domains shown)
VH: QVQLVQSGSELKKPGASVKVSCKASGYTFTNFGMNWVRQAPGQGLEWMGWINTNTGEPTYVDDFKGRFVFSLDTSVSTAYLQISSLKAEDTAVYYCARYYGSTSVWYFDVWGRGTLVTVSS
VL: DIQMTQSPSSLSASVGDRVTITCRASQDIFNYLNWYQQKPGKAPKLLIYYSSRLHSGVPSRFSGSGSGTDFTFTISSLQPEDIATYYCQQGFTLPWTFGQGTKVEIKR
notes: The constant regions come from the vectors pFUSE-CHIg-hG1 (human IgG1 heavy) and pFUSE2-CLIg-hk (human kappa light); also called hMcA-AB1-VEGF-A; humanized mMc-AB1-anti-VEGF-A
Consider B1, for which, in the test with human VEGF-A165 [1], the “IC50, HUVEC proliferation assay” value was ~0.019 µg/mL and the “IC50 in the HUVEC proliferation assay against that of bevacizumab” value was determined as 3 fold lower. In the test with human VEGF-A165 [2], this molecule registered a Ka of 9.24e+09 M⁻¹, a dissociation constant Kd of 0.109 nM, an off-rate (koff) of 0.000421 s⁻¹ and a kon of 3.83e+06 M⁻¹ s⁻¹. Moreover, in the test with mouse VEGF-A, the binding result is given as “no binding”.

B2: mMcA-AB1-anti-VEGF-A (mouse monoclonal antibody A-AB1-anti-VEGF-A) (antibody, V domains shown)
VH: QVKLLESGPELKKPGETVKISCKASGYTFTNFGMNWVKQAPGKGLKWMGWINTNTGEPTYVDDFKGRFAFSLETSASSAYLQISNLNNEDTATYFCARYYGSTSVWYFDVWGAGTTVTVSS
VL: ELVMTQTPSSLSASLGDRVTITCRASQDIFNYLNWYQQKPDGPIKLLIYYSSRLHSGVPSRFSGSGSGTDYSLTISNLDREDIATYFCQQGFTLPWTFGGGTKLEIKR
notes: also called mMc-AB1-anti-VEGF-A; mouse AB1 antibody
As for B2, in the test with human VEGF-A165 [1], the “IC50, HUVEC proliferation assay” value was ~0.011 µg/mL and the “IC50 in the HUVEC proliferation assay against that of bevacizumab” value stood at 5 fold lower. In the test with human VEGF-B186, this molecule had a koff of 0.00571 s⁻¹ and a kon of 32800 M⁻¹ s⁻¹. The binding result with mouse VEGF-A is on record as “no binding”. Further, in the test with human VEGF-A165 [3], the dissociation constant Kd stood at 0.0053 nM, the koff came to 9.9e-05 s⁻¹ and the kon came out at 1.87e+07 M⁻¹ s⁻¹.
